Measurements reported in US11278600B2, “Human alpha-galactosidase variants” (Codexis, Inc., priority 2014, dated 2022).

Key:
Format in all cases: biochemical
[1] = HTP-analysis of yeast culture supernatants, no challenge (MUGal hydrolysis); conditions: activity of the variant/activity of Rd4BB (SEQ ID NO: 15)
In short: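 Activity read as 4-methylumbelliferyl α-D-galactopyranoside hydrolysis: fluorescence (355/448 nm) after sodium carbonate stop, following 30-180 min at 37° C with 2 mM MUGal stock at pH 4.6–4.8. Enzyme source is unchallenged culture supernatant of INVSc1 yeast expressing GLA variants, grown 66-84 h at 30° C.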

[2] = HTP-analysis of supernatants pretreated with acid (MUGal hydrolysis); conditions: activity of the variant/activity of Rd4BB (SEQ ID NO: 15); challenge at pH 3.7
In short: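 MUGal hydrolysis was tracked by fluorescence (Ex 355 nm, Em 448 nm) after a 30-180 min reaction at 37° C. in pH 4.8 McIlvaine/citrate buffer, stopped with 1 M sodium carbonate. Beforehand, yeast (INVSc1) culture supernatants carrying GLA variants were held 1-3 h at 37° C. in acidic McIlvaine buffer, pH 3.3-4.3.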

[3] = HTP-analysis of supernatants pretreated with base (MUGal hydrolysis); conditions: activity of the variant/activity of Rd4BB (SEQ ID NO: 15); challenge at pH 9.65
In short: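 Supernatants from INVSc1 yeast expressing GLA variants (SD-Ura, 66-84 h, 30° C) were mixed with McIlvaine buffer pH 7.0-8.2 or 200 mM sodium bicarbonate pH 9.1-9.7 and held 1-18 h at 37° C. Residual activity was then measured on MUGal at pH 4.8/4.3, 37° C, 30-180 min, by fluorescence (Ex 355/Em 448 nm).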

| Molecule | Relative Activity of GLA Variants After No Challenge (NC) [1] | Relative Activity of GLA Variants After Challenge at pH 3.7 [2] | Relative Activity of GLA Variants After Challenge at pH 9.65 [3] |
| --- | --- | --- | --- |
| 396 (protein, Synthetic Polypeptide sequence of Variant No. 396 of mature Human GLA) LDNGLARTPTMGWLHWERFMCNLDCQEEPDSCISEKLFMEMAERMVSEGWKDAGYEYLCIDDCWMAPQRDSEGRLQADPQRFPHGIRQLANYVHSKGLKLGIYADVGNKTCAGFPGSFGYYDIDAQTFADWGVDLLKFDGCYCDSLENLADGYKHMSMALNRTGRSIVYSCEWPLYMWPFQKPNYTEIRQYCNHWRNFADIDDSWKSIKSILDWTSRNQERIVDVAGPGGWNDPDMLVIGNFGLSWDQQVTQMALWAIMAAPLFMSNDLRHISPQAKALLQDKDVIAINQDPLGKQGYQLRKGDNFEVWERPLSGDAWAVAIINRQEIGGPRSYTIPVASLGKGVACNPACFITQLLPVKRQLGFYNWTSRLKSHINPTGTVLLQLENTMQMSLKDLL | + (0.5 to 1.5 relative activity over Rd4BB (SEQ ID NO: 15)) | + (0.5 to 1.5 relative activity over Rd4BB (SEQ ID NO: 15)) | + (0.5 to 1.5 relative activity over Rd4BB (SEQ ID NO: 15)) |
| 400 (protein, Synthetic Polypeptide sequence of Variant No. 400 of mature Human GLA) LDNGLARTPTMGWLHWERFMCNLDCQEEPDSCISEKLFMEMAERMVSEGWKDAGYEYLCIDDCWMAPQRDSEGRLQADPQRFPHGIRQLANYVHSKGLKLGIYADVGNKTCAGFPGSFGYYDIDAQTFADWGVDLLKFDGCYCDSLENLADGYKHMSCALNRTGRSIVYSCEWPLYMWPFQKPNYTEIRQYCNHWRNFADIDDSWKSIKSILDWTSRNQERIVDVAGPGGWNDPDMLVIGNFGLSWDQQVTQMALWAIMAAPLFMSNDLRHISPQAKALLQDKDVIAINQDPLGKQGYQLRKGDNFEVWERPLSGDAWAVAIINRQEIGGPRSYTIPVASLGKGVACNPACFITQLLPVKRQLGFYNWTSRLKSHINPTGTVLLQLENTMQMSLKDLL | + (0.5 to 1.5 relative activity over Rd4BB (SEQ ID NO: 15)) | + (0.5 to 1.5 relative activity over Rd4BB (SEQ ID NO: 15)) | − (<0.5 relative activity over Rd4BB (SEQ ID NO: 15)) |
| 361 (protein, Synthetic Polypeptide sequence of Variant No. 361 of mature Human GLA) LDNGLARTPTMGWLHWERFMCNLDCQEEPDSCISEKLFMEMAERMVREGWKDAGYEYLCIDDCWMAPQRDSEGRLQADPQRFPHGIRQLANYVHSKGLKLGIYADVGNKTCAGFPGSFGYYDIDAQTFADWGVDLLKFDGCYCDSLENLADGYKHMSLALNRTGRSIVYSCEWPLYMWPFQKPNYTEIRQYCNHWRNFADIDDSWKSIKSILDWTSRNQERIVDVAGPGGWNDPDMLVIGNFGLSWDQQVTQMALWAIMAAPLFMSNDLRHISPQAKALLQDKDVIAINQDPLGKQGYQLRKGDNFEVWERPLSGDAWAVAIINRQEIGGPRSYTIPVASLGKGVACNPACFITQLLPVKRQLGFYNWTSRLKSHINPTGTVLLQLENTMQMSLKDLL | + (0.5 to 1.5 relative activity over Rd4BB (SEQ ID NO: 15)) | + (0.5 to 1.5 relative activity over Rd4BB (SEQ ID NO: 15)) | + (0.5 to 1.5 relative activity over Rd4BB (SEQ ID NO: 15)) |
| 402 (protein, Synthetic Polypeptide sequence of Variant No. 402) LDNGLARTPTMGWLHWERFMCNLDCQEEPDSCISEKLFMEMAERMVSEGWKDAGYEYLCIDDCWMAPQRDSEGRLQADPQRFPHGIRQLANYVHSKGLKLGIYADVGNKTCAGFPGSFGYYDIDAQTFADWGVDLLKFDGCYCDSLENLADGYKHMSLALNRTGRPIVYSCEWPLYMWPFQKPNYTEIRQYCNHWRNFADIDDSWASIKSILDWTSRNQERIVDVAGPGGWNDPDMLVIGNFGLSWDQQVTQMALWAIMAAPLFMSNDLRHISPQAKALLQDKDVIAINQDPLGKQGYQLRKGDNFEVWERPLSGDAWAVAIINRQEIGGPRSYTIPVASLGKGVACNPACFITQLLPVKRQLGFYNWTSRLKSHINPTGTVLLQLENTMQMSLKDLL | + (0.5 to 1.5 relative activity over Rd4BB (SEQ ID NO: 15)) | ++ (>1.5 to 2.5 relative activity over Rd4BB (SEQ ID NO: 15)) | + (0.5 to 1.5 relative activity over Rd4BB (SEQ ID NO: 15)) |
| 397 (protein, Synthetic Polypeptide sequence of Variant No. 397 of mature Human GLA) LDNGLARTPTMGWLHWERFMCNLDCQEEPDSCISEKLFMEMAERMVSEGWKDAGYEYLCIDDCWMAPQRDSEGRLQADPQRFPHGIRQLANYVHSKGLKLGIYADVGNKTCAGFPGSFGYYDIDAQTFADWGVDLLKFDGCYCDSLENLADGYKHMSRALNRTGRSIVYSCEWPLYMWPFQKPNYTEIRQYCNHWRNFADIDDSWKSIKSILDWTSRNQERIVDVAGPGGWNDPDMLVIGNFGLSWDQQVTQMALWAIMAAPLFMSNDLRHISPQAKALLQDKDVIAINQDPLGKQGYQLRKGDNFEVWERPLSGDAWAVAIINRQEIGGPRSYTIPVASLGKGVACNPACFITQLLPVKRQLGFYNWTSRLKSHINPTGTVLLQLENTMQMSLKDLL | + (0.5 to 1.5 relative activity over Rd4BB (SEQ ID NO: 15)) | + (0.5 to 1.5 relative activity over Rd4BB (SEQ ID NO: 15)) | + (0.5 to 1.5 relative activity over Rd4BB (SEQ ID NO: 15)) |
| 401 (protein, Synthetic Polypeptide sequence of Variant No. 401 of mature Human GLA) LDNGLARTPTMGWLHWERFMCNLDCQEEPDSCISEKLFMEMAERMVSEGWKDAGYEYLCIDDCWMAPQRDSEGRLQADPQRFPHGIRQLANYVHSKGLKLGIYADVGNKTCAGFPGSFGYYDIDAQTFADWGVDLLKFDGCYCDSLENLADGYKHMSLALNRSGRSIVYSCEWPLYMWPFQKPNYTEIRQYCNHWRNFADIDDSWKSIKSILDWTSRNQERIVDVAGPGGWNDPDMLVIGNFGLSWDQQVTQMALWAIMAAPLFMSNDLRHISPQAKALLQDKDVIAINQDPLGKQGYQLRKGDNFEVWERPLSGDAWAVAIINRQEIGGPRSYTIPVASLGKGVACNPACFITQLLPVKRQLGFYNWTSRLKSHINPTGTVLLQLENTMQMSLKDLL | + (0.5 to 1.5 relative activity over Rd4BB (SEQ ID NO: 15)) | + (0.5 to 1.5 relative activity over Rd4BB (SEQ ID NO: 15)) | − (<0.5 relative activity over Rd4BB (SEQ ID NO: 15)) |
| 398 (protein, Synthetic Polypeptide sequence of Variant No. 398 of mature Human GLA) LDNGLARTPTMGWLHWERFMCNLDCQEEPDSCISEKLFMEMAERMVSEGWKDAGYEYLCIDDCWMAPQRDSEGRLQADPQRFPHGIRQLANYVHSKGLKLGIYADVGNKTCAGFPGSFGYYDIDAQTFADWGVDLLKFDGCYCDSLENLADGYKHMSLSLNRTGRSIVYSCEWPLYMWPFQKPNYTEIRQYCNHWRNFADIDDSWKSIKSILDWTSRNQERIVDVAGPGGWNDPDMLVIGNFGLSWDQQVTQMALWAIMAAPLFMSNDLRHISPQAKALLQDKDVIAINQDPLGKQGYQLRKGDNFEVWERPLSGDAWAVAIINRQEIGGPRSYTIPVASLGKGVACNPACFITQLLPVKRQLGFYNWTSRLKSHINPTGTVLLQLENTMQMSLKDLL | + (0.5 to 1.5 relative activity over Rd4BB (SEQ ID NO: 15)) | ++ (>1.5 to 2.5 relative activity over Rd4BB (SEQ ID NO: 15)) | − (<0.5 relative activity over Rd4BB (SEQ ID NO: 15)) |
| 399 (protein, Synthetic Polypeptide sequence of Variant No. 399 of mature Human GLA) LDNGLARTPTMGWLHWERFMCNLDCQEEPDSCISEKLFMEMAERMVSEGWKDAGYEYLCIDDCWMAPQRDSEGRLQADPQRFPHGIRQLANYVHSKGLKLGIYADVGNKTCAGFPGSFGYYDIDAQTFADWGVDLLKFDGCYCDSLENLADGYKHMSLALNRTGKSIVYSCEWPLYMWPFQKPNYTEIRQYCNHWRNFADIDDSWKSIKSILDWTSRNQERIVDVAGPGGWNDPDMLVIGNFGLSWDQQVTQMALWAIMAAPLFMSNDLRHISPQAKALLQDKDVIAINQDPLGKQGYQLRKGDNFEVWERPLSGDAWAVAIINRQEIGGPRSYTIPVASLGKGVACNPACFITQLLPVKRQLGFYNWTSRLKSHINPTGTVLLQLENTMQMSLKDLL | + (0.5 to 1.5 relative activity over Rd4BB (SEQ ID NO: 15)) | + (0.5 to 1.5 relative activity over Rd4BB (SEQ ID NO: 15)) | + (0.5 to 1.5 relative activity over Rd4BB (SEQ ID NO: 15)) |
